# Molecular target: KLF15 (hKLF15) (Homo sapiens) (UniProt Q9UIH9)
# Test: cell_activity
# Conditions: AAV8-GNAT1-hKLF15 subretinal in pig, 2x10^10 gc, 15 days; 38% repression of protein
# Sequence of KLF15 (hKLF15) (Homo sapiens) (Q9UIH9 whole entry): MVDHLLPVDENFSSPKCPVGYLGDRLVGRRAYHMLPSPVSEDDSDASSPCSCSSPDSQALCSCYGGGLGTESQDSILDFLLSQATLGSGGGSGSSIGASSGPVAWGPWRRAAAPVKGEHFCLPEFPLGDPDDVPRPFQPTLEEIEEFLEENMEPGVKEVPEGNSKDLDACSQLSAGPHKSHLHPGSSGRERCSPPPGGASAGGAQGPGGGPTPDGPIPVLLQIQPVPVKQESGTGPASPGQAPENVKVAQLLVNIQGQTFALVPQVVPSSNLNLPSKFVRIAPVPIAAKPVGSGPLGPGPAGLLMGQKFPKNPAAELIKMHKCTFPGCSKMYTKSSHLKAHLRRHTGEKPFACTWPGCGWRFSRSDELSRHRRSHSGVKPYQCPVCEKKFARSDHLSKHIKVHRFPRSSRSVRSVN
substance,measurement,value
endogenous porcine Rho promoter (hRHO-cis highly conserved),activity (% repression of Rho transcript),45

# From US20240263191
